# Results: article PMC6652776
# How the values were obtained:
# [1] = target: PE-PilA fusion protein (version used in solution and ELISA experiments) (nontypeable Haemophilus influenzae strain 772 | nontypeable Haemophilus influenzae strain 86-028NP); assay: AUC; sedimentation velocity, 25,000 rpm, AN-60Ti rotor, 15°C, absorbance at 280 nm, c(S) model in Sedfit
# [2] = target: protein E (PE), recombinant, isolated (nontypeable Haemophilus influenzae strain 772); assay: as above
Substance,stoichiometry N [1],stoichiometry N [2]
PE-PilA fusion protein (version used in solution and ELISA experiments),2,
"protein E (PE), recombinant, isolated (domain or fragment)",,2
